These are literature values, as cited in patent publication US9856460B2, “Nucleic acids encoding synthetic scaffolds and host cells genetically modified with the nucleic acids” (The Regents of the University of California, priority 2008, dated 2018).

What is called Kd is a measure of binding affinity in units of concentration.

The target of this data set is T1, WASP GBD (Rattus norvegicus, UniProt O08816).
T1 construct: 196-274
The following applies: partner WASP GBD; measured in trans.

T1 sequence (O08816 196-274): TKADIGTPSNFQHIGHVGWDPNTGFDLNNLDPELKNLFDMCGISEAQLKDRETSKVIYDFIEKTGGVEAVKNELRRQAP

Turning to “GBD interaction ligand LVGALMHVMQKRSRAIHSSDEGEDQAGDEDED, SEQ ID NO: 30, partner WASP GBD [GBD lig.]”, the Kd was 1000 nM.
